Experimental findings from patent JP2024513915A (dated 2024) are described below.

In the test the target is CD33 (UniProt P20138 18-364, limits assumed). Kind of test: cell-based or functional assay.
Sequence of CD33 (P20138 18-364 limits assumed): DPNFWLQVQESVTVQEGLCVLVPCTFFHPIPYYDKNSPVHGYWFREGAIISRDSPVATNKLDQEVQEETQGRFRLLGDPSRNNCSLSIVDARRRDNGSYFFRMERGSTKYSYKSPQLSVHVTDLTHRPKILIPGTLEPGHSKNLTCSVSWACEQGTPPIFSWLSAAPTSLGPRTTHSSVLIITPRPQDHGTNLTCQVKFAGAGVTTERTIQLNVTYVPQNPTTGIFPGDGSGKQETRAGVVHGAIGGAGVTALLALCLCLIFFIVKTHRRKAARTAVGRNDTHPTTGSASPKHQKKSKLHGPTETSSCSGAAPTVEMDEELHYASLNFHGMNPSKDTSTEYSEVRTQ

B1: AMV564 (bispecific antibody)
chain: DIQMTQSPSSLSASVGDRVTITCRSSTGAVTTSNYANWVQQKPGKAPKALIGGTNKRAPGVPSRFSGSLIGDKATLTISSLQPEDFATYYCALWYSNLWVFGQGTKVEIKGGSGGSQVQLVQSGAEVKKPGASVKVSCKASGYTFTSYDINWVRQAPGQGLEWMGWMNPNSGNTGFAQKFQGRVTMTRDTSTSTVYMELSSLRSEDTAVYYCARDRANTDYSLGMDVWGQGTLVTVSSGGSGQSVLTQPPSASGTPGQRVTISCSGSRSNIGSNTVNWYQQLPGTAPKLLIYGNNQRPSGVPDRFSGSKSGTSASLAISGLQSEDEADYYCATWDDSLIGWVFGGGTKLTVLGGSGGSEVQLVESGGGLVQPGGSLRLSCAASGFTFSTYAMNWVRQAPGKGLEWVGRIRSKYNNYATYYADSVKDRFTISRDDSKNSLYLQMNSLKTEDTAVYYCARHGNFGNSYVSYFAYWGQGTLVTVSS
As to B1, the “CD4+及びCD8+T細胞増殖” value is more than 2 fold.
